The text below walks through data of publication PMC6314816 (Journal of the American Chemical Society, 2018).

Holding throughout (assay): spectrophotometric NADPH oxidation, initial rates
Common to all, as to type: biochemical, Thermocrispum municipale
Settings in all cases: NADPH co-substrate

The subject of one data set is CC(=O)CCc1ccccc1.
The next data set deals with CC(=O)Cc1ccccc1.
Substrate in data set [1]: CC(=O)Cc1ccccc1
The source holds these as a separate data set.

Substrate in data set [2]: CC(=O)CCc1ccccc1
This is another data set of the same source.

Turning to “TmCHMO (Thermocrispum municipale; F434G/L145G/L437T/T435F)”, in the data set with CC(=O)CCc1ccccc1, the Km (as a rule, the substrate concentration at which the rate is half of its maximum) amounted to 24 ± 4.1 µM and the kcat (in general, the maximal rate divided by the concentration of active sites) was 0.16 ± 0.0028 s⁻¹.

For the molecule “TmCHMO (Thermocrispum municipale; L437A/W492Y)”, in the data set with CC(=O)Cc1ccccc1, the Km came out at 1500 ± 460 µM and the kcat came out at 0.16 ± 0.014 s⁻¹.

B1: TmCHMO (Thermocrispum municipale) (protein)
chain: MSTTQTPDLDAIVIGAGFGGIYMLHKLRNDLGLSVRVFEKGGGVGGTWYWNKYPGAKSDTEGFVYRYSFDKELLREYDWTTRYLDQPDVLAYLEHVVERYDLARDIQLNTEVTDAIFDEETELWRVTTAGGETLTARFLVTALGLLSRSNIPDIPGRDSFAGRLVHTNAWPEDLDITGKRVGVIGTGSTGTQFIVAAAKMAEQLTVFQRTPQYCVPSGNGPMDPDEVARIKQNFDSIWDQVRSSTVAFGFEESTVEAMSVSESERQRVFQQAWDKGNGFRFMFGTFCDIATNPEANAAAAAFIRSKIAEIVKDPETARKLTPTDLYAKRPLCNEGYYETYNRDNVSLVSLKETPIEEIVPQGVRTSDGVVHELDVLVFATGFDAVDGNYRAMNLRGRDGRHINEHWTEGPTSYLGVTKAGFPNMFMILGPNGPFTNLPPSIEAQVEWISDLIDKATREGLTTVEPTADAEREWTETCAEIANMTLFPKADSWIFGANIPGKRHAVMFYLGGLGNYRRQLADVADGGYRGFQLRGERAQAVA
Take B1: in data set [1], the Km was 860 ± 60 µM and the kcat amounted to 0.73 ± 0.014 s⁻¹. In data set [2], the Km was 12000 ± 7000 µM and the kcat was 0.31 ± 0.11 s⁻¹.
